This data set is described as follows: self-splicing fitness, log relative to wild type (ln ratio); higher = more splicing; Tetrahymena group I intron in knt gene, E. coli kanamycin selection, DiMSum; sequences stand for … in CUCUCU…GGAGGGAAAAGUUAUCAGGCAUGCACCUGGUAGCUAGUCUUUAAACCAAUAGAUUGCAUCGGUUUAAAAGGCAAGACCGUCAAAUUGCGGGAAAGGGGUCAACAGCCGUUCAGUACCAAGUCUCAGGGGAAACUUUGAGAUGGCCUUGCAAAGGGUAUGGUAAUAAGCUGACGGACAUGGUCCUAACCACGCAGCCAAGUCCUAAGUCAACAGAUCUUCUGUUGAUAUGGAUGCAGUUCACAGACUAAAUGUCGGUCGGGGAAGAUGUAUUCUUCUCAUAAGAUAUAGUCGGACCUCUCCUUAAUGGGAGCUAGCGGAUGAAGUGAUGCAACACUGGAGCCGCUGGGAACUAAUUUGUAUGCGAAAGUAUAUUGAUUAGUUUUGGAGUACUCGUGGUCG
The gist of the method:
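Pooled colonies went to amplicon sequencing on an Illumina HiSeq 2500 after six replicate transformations. The plates were LB agar with 100 μg/mL carbenicillin, 50 μM IPTG and 0.2% rhamnose, with or without 25 μg/mL kanamycin, incubated overnight at 37°C or 30°C. The E. coli BL21(DE3) library had all eight P1ex-region intron nucleotides randomised, the intron placed in the knt kanamycin-resistance gene on pET-22b(+). DiMSum fitness is the error-weighted combination of replicate fold changes, kanamycin against none, normalised to wild type.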

± gives the uncertainty stated by the source.

As to UGUAAGCAAUAUUACGGCCG, the “self-splicing fitness (ln)” value reads like this: (30 °C) -0.494 ± 0.17; (37 °C) -0.516 ± 0.25.

For the sequence GGCAAGCAAUAUUACGGCUU, the “self-splicing fitness (ln)” value (30 °C) was -0.985 ± 0.074 and the “self-splicing fitness (ln)” value (37 °C) was 0.644 ± 0.12.

Turning to ACGCAGCAAUAUUACGUGUG, the “self-splicing fitness (ln)” value by setting is: (30 °C) -2.86 ± 0.11; (37 °C) -2.31 ± 0.12.

As for UACAAGCAAUAUUACGACGC, the “self-splicing fitness (ln)” value is, setting by setting: (30 °C) -2.93 ± 0.25; (37 °C) -1.67 ± 0.23.

For the sequence GAGAAGCAAUAUUACGUCUC, the “self-splicing fitness (ln)” value reads like this: (30 °C) -4.38 ± 0.46; (37 °C) -2.39 ± 0.24.

In the case of UUCUAGCAAUAUUACGUUUC, the “self-splicing fitness (ln)” value reads like this: (30 °C) -2.75 ± 0.39; (37 °C) -2.47 ± 0.3.

Regarding UCUAAGCAAUAUUACGCUAC, the “self-splicing fitness (ln)” value (37 °C) was -1.73 ± 0.45.

Take GACUAGCAAUAUUACGAAAC: the “self-splicing fitness (ln)” value was -1.3 ± 0.12 (30 °C) and -0.114 ± 0.13 (37 °C).

For GGAUAGCAAUAUUACGUUGG, the “self-splicing fitness (ln)” value (30 °C) is -2.7 ± 0.16 and the “self-splicing fitness (ln)” value (37 °C) was -2.17 ± 0.22.

On to UUGAAGCAAUAUUACGCGCG, for which the “self-splicing fitness (ln)” value amounted to 0.0526 ± 0.092 (30 °C) and 0.136 ± 0.12 (37 °C).

UUAAAGCAAUAUUACGUCUU: the “self-splicing fitness (ln)” value runs as follows: (30 °C) -1.23 ± 0.082; (37 °C) -0.988 ± 0.12.

On to GGCUAGCAAUAUUACGUCUG, for which the “self-splicing fitness (ln)” value is -4.06 ± 0.31 (30 °C) and -2.13 ± 0.17 (37 °C).

For the sequence CAGAAGCAAUAUUACGCUAG, the “self-splicing fitness (ln)” value reads like this: (30 °C) -2.82 ± 0.18; (37 °C) -1.73 ± 0.2.

Consider GUCCAGCAAUAUUACGCAGU, for which the “self-splicing fitness (ln)” value is -0.463 ± 0.046 (30 °C) and -0.161 ± 0.058 (37 °C).

Take UUACAGCAAUAUUACGGAAU: the “self-splicing fitness (ln)” value (30 °C) was -3.68 ± 0.2 and the “self-splicing fitness (ln)” value (37 °C) was -2.7 ± 0.17.

As to AAGCAGCAAUAUUACGGACU, the “self-splicing fitness (ln)” value is -0.985 ± 0.078 (30 °C) and -0.121 ± 0.11 (37 °C).

CCCUAGCAAUAUUACGGCCG: the “self-splicing fitness (ln)” value is -2.29 ± 0.36 (30 °C) and -1.62 ± 0.34 (37 °C).

Regarding CAAUAGCAAUAUUACGAUCU, the “self-splicing fitness (ln)” value was -3.45 ± 0.22 (30 °C) and -1.91 ± 0.21 (37 °C).

For the sequence CCGUAGCAAUAUUACGCGAU, the “self-splicing fitness (ln)” value was -2.48 ± 0.22 (30 °C) and -3.66 ± 0.35 (37 °C).

In the case of AUGUAGCAAUAUUACGCGGG, the “self-splicing fitness (ln)” value reads like this: (30 °C) -4.31 ± 0.33; (37 °C) -2.37 ± 0.2.

Turning to GAUUAGCAAUAUUACGAGCG, the “self-splicing fitness (ln)” value was -1.27 ± 0.12 (30 °C) and 0.534 ± 0.12 (37 °C).

GCCUAGCAAUAUUACGACAC: the “self-splicing fitness (ln)” value is -1.06 ± 0.21 (30 °C) and -0.38 ± 0.27 (37 °C).

GGUAAGCAAUAUUACGUUGU: the “self-splicing fitness (ln)” value runs as follows: (30 °C) -3.1 ± 0.26; (37 °C) -1.61 ± 0.36.

As to CAAAAGCAAUAUUACGUGCA, the “self-splicing fitness (ln)” value runs as follows: (30 °C) -2.95 ± 0.12; (37 °C) -1.96 ± 0.12.

Consider CGUGAGCAAUAUUACGUGUC, for which the “self-splicing fitness (ln)” value reads like this: (30 °C) -3 ± 0.4; (37 °C) -3.04 ± 0.43.

As for UCGAAGCAAUAUUACGCCCU, the “self-splicing fitness (ln)” value (30 °C) is -2.45 ± 0.2 and the “self-splicing fitness (ln)” value (37 °C) is -1.7 ± 0.13.

Consider CUCUAGCAAUAUUACGUAAG, for which the “self-splicing fitness (ln)” value is, setting by setting: (30 °C) -1.57 ± 0.11; (37 °C) -0.426 ± 0.15.

Turning to CUCUAGCAAUAUUACGAUCC, the “self-splicing fitness (ln)” value (30 °C) was -2.43 ± 0.31 and the “self-splicing fitness (ln)” value (37 °C) was -2.11 ± 0.3.

In the case of GGGGAGCAAUAUUACGACAG, the “self-splicing fitness (ln)” value (30 °C) is -3.9 ± 0.39 and the “self-splicing fitness (ln)” value (37 °C) was -2.33 ± 0.39.

Take CUGCAGCAAUAUUACGCGGG: the “self-splicing fitness (ln)” value (30 °C) is -3.94 ± 0.23 and the “self-splicing fitness (ln)” value (37 °C) was -1.65 ± 0.18.

Take CUCGAGCAAUAUUACGACAG: the “self-splicing fitness (ln)” value (30 °C) was -1.76 ± 0.15 and the “self-splicing fitness (ln)” value (37 °C) was -1.42 ± 0.21.

For UUGAAGCAAUAUUACGCAAA, the “self-splicing fitness (ln)” value reads like this: (30 °C) -0.591 ± 0.13; (37 °C) -0.121 ± 0.14.

As for AAGUAGCAAUAUUACGAUAG, the “self-splicing fitness (ln)” value runs as follows: (30 °C) -2.72 ± 0.16; (37 °C) -2.64 ± 0.36.

Turning to GUAGAGCAAUAUUACGAAGC, the “self-splicing fitness (ln)” value is, setting by setting: (30 °C) -2.62 ± 0.24; (37 °C) -0.723 ± 0.26.

For AUAUAGCAAUAUUACGUAAG, the “self-splicing fitness (ln)” value reads like this: (30 °C) -1.61 ± 0.14; (37 °C) -0.705 ± 0.19.

For CGUCAGCAAUAUUACGCGAU, the “self-splicing fitness (ln)” value is, setting by setting: (30 °C) -3.23 ± 0.29; (37 °C) -1.76 ± 0.42.

Take CGUUAGCAAUAUUACGCCUG: the “self-splicing fitness (ln)” value reads like this: (30 °C) -0.175 ± 0.085; (37 °C) 0.664 ± 0.1.

The values above are taken from the supplement of paper PMC7877785.
